Assay results as given in paper PMC11169542, “A probe for NIR-II imaging and multimodal analysis of early Alzheimer’s disease by targeting CTGF” (Nature Communications, 2024).
Ends that are not written are not given here.

Biological target: T1, CTGF (Homo sapiens, UniProt P29279)
T1 sequence (P29279 27-349): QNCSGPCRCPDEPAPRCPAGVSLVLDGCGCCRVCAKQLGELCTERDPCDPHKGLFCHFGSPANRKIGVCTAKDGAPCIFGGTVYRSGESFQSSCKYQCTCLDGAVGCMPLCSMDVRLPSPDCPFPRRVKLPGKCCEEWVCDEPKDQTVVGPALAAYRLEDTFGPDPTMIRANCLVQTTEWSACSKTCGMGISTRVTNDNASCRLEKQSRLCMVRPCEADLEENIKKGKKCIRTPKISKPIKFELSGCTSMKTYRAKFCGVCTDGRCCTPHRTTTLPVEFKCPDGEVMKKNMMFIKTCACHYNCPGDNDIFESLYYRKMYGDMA
Assay: DGC fluorescence labelling of human postmortem brain sections
Design: The brain tissue samples of autopsy-confirmed AD patients were obtained from the Chinese Brain Bank Center; from tissue; host or cells: postmortem human brain sections (hippocampus, cortex) of AD patients and healthy controls
Settings: for fluorescence (FL) intensity of DGC: cortex section, ImageJ
Method: The brain tissue samples of autopsy-confirmed AD patients were obtained from the Chinese Brain Bank Center (CBBC) and Human Brain Bank, Central South University Xiangya School of Medicine. First, the brain sections were air-dried for 15 min at room temperature, followed by immersion in water. 5% H2O2 was applied for 15 min at room temperature. The sections were washed three times with PBS for 5 min each time. Then, tissue repair was performed using trypsin at a temperature of 37 °C for 5 min and washed three times with PBS. We chose 10% sheep serum to block for a duration of 20 min at 37°. Primary antibodies (CTGF antibody and Aβ antibody) were added to the sections overnight at 4 °C. FITC-labeled Goat Anti-Rabbit IgG (H + L) (1: dilution 1:200, Bioss, Cat#bs-0370R-FITC) was applied and incubated at 37 °C for 20 min in darkness. Subsequent washing steps involved rinsing the sections three times with PBS, each time lasting for 5 min while avoiding exposure to light. DAPI staining was performed, taking care to store the samples away from light during the 5-min procedure. Then observed by the CLSM system. Then, we chose the optimal incubation concentration of DGC (200 μM) was used to determine the conditions using DAB Horseradish Peroxidase Color Development Kit. After the brain sections were co-stained by DGC (200 μM) at 4 °C overnight, a DAB chromogenic agent was added to the brain tissue sections to explore whether DGC can catalyze DAB solutions to produce insoluble brown precipitate to attach the brain tissue sections with an optical microscope. Finally, the brain tissue sections were digested with aqua regia to measure the Au content by the ICP-MS system.

DGC: CTGF-targeting peptide-coated gold nanocluster: one Au26 gold nanocluster coated by eight DAG cyclic peptides, NIR-II and red fluorescence (CDAGRKQKC; also: cyclic peptide, ring not given here, eight peptides on one Au26 nanocluster via Cys Au-S bonds)
FL Intensity (AD 1, Cortex section stained with DGC): 8.08 | FL Intensity (AD 1, Hippocampus section stained with DGC): 9.357 | FL Intensity (AD 2, Cortex section stained with DGC): 14.1982 | FL Intensity (AD 2, Hippocampus section stained with DGC): 17.484 | fluorescence (FL) intensity of DGC (Case 1 (healthy control, Thal 0), section 1): 0.3032 | fluorescence (FL) intensity of DGC (Case 1 (healthy control, Thal 0), section 2): 0.3289 | fluorescence (FL) intensity of DGC (Case 1 (healthy control, Thal 0), section 3): 0.3505 | fluorescence (FL) intensity of DGC (Case 2 (healthy control, Thal 0), section 1): 0.2446 | fluorescence (FL) intensity of DGC (Case 2 (healthy control, Thal 0), section 2): 0.3615 | fluorescence (FL) intensity of DGC (Case 2 (healthy control, Thal 0), section 3): 0.163 | fluorescence (FL) intensity of DGC (Case 3 (AD, Thal 1), section 1): 0.6904 | fluorescence (FL) intensity of DGC (Case 3 (AD, Thal 1), section 2): 0.8926 | fluorescence (FL) intensity of DGC (Case 3 (AD, Thal 1), section 3): 0.6063 | fluorescence (FL) intensity of DGC (Case 4 (AD, Thal 1), section 1): 0.9911 | fluorescence (FL) intensity of DGC (Case 4 (AD, Thal 1), section 2): 1.101 | fluorescence (FL) intensity of DGC (Case 4 (AD, Thal 1), section 3): 1.556 | FL Intensity (HC 1, Cortex section stained with DGC): 1.2358 | FL Intensity (HC 1, Hippocampus section stained with DGC): 1.043 | FL Intensity (HC 2, Cortex section stained with DGC): 1.632 | FL Intensity (HC 2, Hippocampus section stained with DGC): 6.0176
